Reference: patent US20060241051A1 (Takeda / Millennium, published 2006)
Numbered stars: 1 amine (or outer) side, 2 acyl side, 3 side chain; on linkers, the order of the positions; unused ones are H or OH. Square brackets hold non-standard residues; d marks the D form. Ends that are not written are not given here. * marks the point of attachment. Ala(2-Qui) = 2-quinolylalanine, O=C([C@H](Cc1ccc2ccccc2n1)N[*:1])[*:2]; Tyr(Me) = O-methyltyrosine, COc1ccc(C[C@H](N[*:1])C(=O)[*:2])cc1; Arg(Me) = CNC(=N)NCCC[C@H](N)C(=O)O; Fmoc = O=C(OCC1c2ccccc2-c2ccccc21)*; azaGly = NNC(=O)O

B1: Compound No. 237: [D-Tyr1,D-Asn2,AZaGly7,Arg(Me)9]MS10 (peptide)
peptide: [dY][dN]WNSF[azaGly]LR(Me)F-NH2
B2: Compound No. 232: [D-Tyr1,AzaGly7,Arg(Me)9]MS10 (peptide)
peptide: [dY]NWNSF[azaGly]LR(Me)F-NH2
B3: Compound No. 203: [D-Tyr1,Cha6,Arg(Me)9]MS10 (peptide)
peptide: YNWNSXGLRF
modifications: D-Tyr1; Cha6; Arg(Me)9; C-terminal amide
notes: printed structure is the same as that of Compound No. 172
B4: Compound No. 217: des(1)-[D-Tyr2,Arg(Me)9]MS10 (peptide)
peptide: [dY]WNSFGL[Arg(Me)]F-NH2
B5: Compound No. 216: des(1)-[D-Asn2,Arg(Me)9]MS10 (peptide)
peptide: [dN]WNSFGL[Arg(Me)]F-NH2
B6: Compound No. 241: des(1)-[D-Tyr2,Thr3,AzaGly7,Arg(Me)9]MS10 (peptide)
peptide: [dY]TNSF[azaGly]L[Arg(Me)]F-NH2
B7: Compound No. 228: des(1)-[D-Tyr2,Ile3,Arg(Me)9]MS10 (peptide)
peptide: [dY]INSFGL[Arg(Me)]F-NH2
B8: Compound No. 214: [D-Tyr1,Gln2,Arg(Me)9]MS10 (peptide)
peptide: [dY]QWNSFGL[Arg(Me)]F-NH2
modifications: N-terminus assumed
SMILES: CNC(=N)NCCC[C@H](NC(=O)[C@H](CC(C)C)NC(=O)CNC(=O)[C@H](Cc1ccccc1)NC(=O)[C@H](CO)NC(=O)[C@H](CC(N)=O)NC(=O)[C@H](Cc1c[nH]c2ccccc12)NC(=O)[C@H](CCC(N)=O)NC(=O)[C@H](N)Cc1ccc(O)cc1)C(=O)N[C@@H](Cc1ccccc1)C(N)=O
B9: Compound No. 211: [D-Tyr1,Thr5,Arg(Me)9]MS10 (peptide)
peptide: [dY]NWNTFGL[Arg(Me)]F-NH2
modifications: N-terminus assumed
SMILES: CNC(=N)NCCC[C@H](NC(=O)[C@H](CC(C)C)NC(=O)CNC(=O)[C@H](Cc1ccccc1)NC(=O)[C@@H](NC(=O)[C@H](CC(N)=O)NC(=O)[C@H](Cc1c[nH]c2ccccc12)NC(=O)[C@H](CC(N)=O)NC(=O)[C@H](N)Cc1ccc(O)cc1)[C@@H](C)O)C(=O)N[C@@H](Cc1ccccc1)C(N)=O
B10: Compound No. 235: [D-Tyr1,Ala3,AzaGly7,Arg(Me)9]MS10 (peptide)
peptide: [dY]NANSF[azaGly]L[Arg(Me)]F-NH2
modifications: N-terminus assumed
SMILES: CNC(=N)NCCC[C@H](NC(=O)[C@H](CC(C)C)NC(=O)NNC(=O)[C@H](Cc1ccccc1)NC(=O)[C@H](CO)NC(=O)[C@H](CC(N)=O)NC(=O)[C@H](C)NC(=O)[C@H](CC(N)=O)NC(=O)[C@H](N)Cc1ccc(O)cc1)C(=O)N[C@@H](Cc1ccccc1)C(N)=O
B11: Compound No. 212: [D-Tyr1,Ala5,Arg(Me)9]MS10 (peptide)
peptide: [dY]NWNAFGL[Arg(Me)]F-NH2
modifications: N-terminus assumed
SMILES: CNC(=N)NCCC[C@H](NC(=O)[C@H](CC(C)C)NC(=O)CNC(=O)[C@H](Cc1ccccc1)NC(=O)[C@H](C)NC(=O)[C@H](CC(N)=O)NC(=O)[C@H](Cc1c[nH]c2ccccc12)NC(=O)[C@H](CC(N)=O)NC(=O)[C@H](N)Cc1ccc(O)cc1)C(=O)N[C@@H](Cc1ccccc1)C(N)=O
B12: Compound No. 229: [D-Tyr1,Val3,Arg(Me)9]MS10 (peptide)
peptide: [dY]NVNSFGL[Arg(Me)]F-NH2
modifications: N-terminus assumed
SMILES: CNC(=N)NCCC[C@H](NC(=O)[C@H](CC(C)C)NC(=O)CNC(=O)[C@H](Cc1ccccc1)NC(=O)[C@H](CO)NC(=O)[C@H](CC(N)=O)NC(=O)[C@@H](NC(=O)[C@H](CC(N)=O)NC(=O)[C@H](N)Cc1ccc(O)cc1)C(C)C)C(=O)N[C@@H](Cc1ccccc1)C(N)=O
B13: Compound No. 215: [D-Tyr1,Thr2,Arg(Me)9]MS10 (peptide)
peptide: [dY]TWNSFGL[Arg(Me)]F-NH2
modifications: N-terminus assumed
SMILES: CNC(=N)NCCC[C@H](NC(=O)[C@H](CC(C)C)NC(=O)CNC(=O)[C@H](Cc1ccccc1)NC(=O)[C@H](CO)NC(=O)[C@H](CC(N)=O)NC(=O)[C@H](Cc1c[nH]c2ccccc12)NC(=O)[C@@H](NC(=O)[C@H](N)Cc1ccc(O)cc1)[C@@H](C)O)C(=O)N[C@@H](Cc1ccccc1)C(N)=O
B14: Compound No. 234: [D-Tyr1,Val3,AzaGly7,Arg(Me)9]MS10 (peptide)
peptide: [dY]NVNSF[azaGly]L[Arg(Me)]F-NH2
modifications: N-terminus assumed
SMILES: CNC(=N)NCCC[C@H](NC(=O)[C@H](CC(C)C)NC(=O)NNC(=O)[C@H](Cc1ccccc1)NC(=O)[C@H](CO)NC(=O)[C@H](CC(N)=O)NC(=O)[C@@H](NC(=O)[C@H](CC(N)=O)NC(=O)[C@H](N)Cc1ccc(O)cc1)C(C)C)C(=O)N[C@@H](Cc1ccccc1)C(N)=O
B15: Compound No. 213: [D-Tyr1,Val8,Arg(Me)9]MS10 (peptide)
peptide: [dY]NWNSFGV[Arg(Me)]F-NH2
B16: Compound No. 233: [D-Tyr1,Ile3,AzaGly7,Arg(Me)9]MS10 (peptide)
peptide: [dY]NINSF[azaGly]L[Arg(Me)]F-NH2
modifications: N-terminus assumed
SMILES: CC[C@H](C)[C@H](NC(=O)[C@H](CC(N)=O)NC(=O)[C@H](N)Cc1ccc(O)cc1)C(=O)N[C@@H](CC(N)=O)C(=O)N[C@@H](CO)C(=O)N[C@@H](Cc1ccccc1)C(=O)NNC(=O)N[C@@H](CC(C)C)C(=O)N[C@@H](CCCNC(=N)NC)C(=O)N[C@@H](Cc1ccccc1)C(N)=O
B17: Compound No. 222: des(1)-[D-Tyr2,AzaGly7,Arg(Me)9]MS10 (peptide)
peptide: [dY]WNSF[azaGly]L[Arg(Me)]F-NH2
B18: Compound No. 201: [Ala(2-Qui)10]MS10 (peptide)
peptide: YNWNSFGLR[Ala(2-Qui)]-NH2
modifications: N-terminus assumed
SMILES: CC(C)C[C@H](NC(=O)CNC(=O)[C@H](Cc1ccccc1)NC(=O)[C@H](CO)NC(=O)[C@H](CC(N)=O)NC(=O)[C@H](Cc1c[nH]c2ccccc12)NC(=O)[C@H](CC(N)=O)NC(=O)[C@@H](N)Cc1ccc(O)cc1)C(=O)N[C@@H](CCCNC(=N)N)C(=O)N[C@@H](Cc1ccc2ccccc2n1)C(N)=O
B19: Compound No. 224: des(1)-[D-Tyr2,D-Trp3,Arg(Me)9]MS10 (peptide)
peptide: [dY][dW]NSFGL[Arg(Me)]F-NH2
modifications: N-terminus assumed
SMILES: CNC(=N)NCCC[C@H](NC(=O)[C@H](CC(C)C)NC(=O)CNC(=O)[C@H](Cc1ccccc1)NC(=O)[C@H](CO)NC(=O)[C@H](CC(N)=O)NC(=O)[C@@H](Cc1c[nH]c2ccccc12)NC(=O)[C@H](N)Cc1ccc(O)cc1)C(=O)N[C@@H](Cc1ccccc1)C(N)=O
B20: Compound No. 40: [D-Trp3]MS10 (peptide)
peptide: YN[dW]NSFGLRF-NH2
B21: Compound No. 1: Metastin (peptide)
peptide: GTSLSPPPESSGSRQQPGLSAPHSRQIPAPQGAVLVQREKDLPNYNWNSFGLRF
B22: Compound No. 18: [Tyr(Me)10]MS10 (peptide)
peptide: YNWNSFGLR[Tyr(Me)]-NH2
B23: Compound No. 109: [Tyr10]MS10 (peptide)
peptide: YNWNSFGLRY-NH2
B24: Compound No. 101: [Ser7]MS10 (peptide)
peptide: YNWNSFSLRF-NH2
B25: Compound No. 24: [Leu5]MS10 (peptide)
peptide: YNWNLFGLRF-NH2
B26: Compound No. 75: [Asp1]MS10 (peptide)
peptide: DNWNSFGLRF-NH2
B27: Compound No. 50: [Ala7]MS10 (peptide)
peptide: YNWNSFALRF-NH2
B28: Compound No. 53: des(1-3)-Fmoc-MS10 (peptide)
peptide: Fmoc-NSFGLRF-NH2
B29: Compound No. 42: [D-Tyr1]MS10 (peptide)
peptide: [dY]NWNSFGLRF-NH2
B30: Compound No. 55: des(1)-Fmoc-MS10 (peptide)
peptide: Fmoc-NWNSFGLRF-NH2

The binders below were run against T1, human OT7T175 (metastin receptor) (human, UniProt Q969F8 1-398) (assay: cell-based or functional assay).
T1 sequence (Q969F8 whole entry L364H): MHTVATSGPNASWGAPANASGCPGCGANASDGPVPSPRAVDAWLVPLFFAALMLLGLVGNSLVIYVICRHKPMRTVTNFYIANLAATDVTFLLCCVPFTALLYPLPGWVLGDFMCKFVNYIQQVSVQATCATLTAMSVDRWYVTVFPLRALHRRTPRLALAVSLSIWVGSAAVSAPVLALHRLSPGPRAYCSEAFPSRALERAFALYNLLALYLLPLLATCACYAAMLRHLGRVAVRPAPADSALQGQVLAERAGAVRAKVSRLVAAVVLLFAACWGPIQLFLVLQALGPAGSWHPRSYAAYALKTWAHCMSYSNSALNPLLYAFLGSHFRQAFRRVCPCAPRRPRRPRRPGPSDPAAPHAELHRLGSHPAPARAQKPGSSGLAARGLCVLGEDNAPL

| Binder | intracellular Ca ion level-increasing activity (FLIPR) |
| --- | --- |
| B1 | 3 specific activity to metastin (1-54) |
| B2 | 3 specific activity to metastin (1-54) |
| B3 | 10 specific activity to metastin (1-54) |
| B4 | 20 specific activity to metastin (1-54) |
| B5 | 1 specific activity to metastin (1-54) |
| B6 | 1 specific activity to metastin (1-54) |
| B7 | 5 specific activity to metastin (1-54) |
| B8 | 10 specific activity to metastin (1-54) |
| B9 | 10 specific activity to metastin (1-54) |
| B10 | 1 specific activity to metastin (1-54) |
| B11 | 10 specific activity to metastin (1-54) |
| B12 | 1 specific activity to metastin (1-54) |
| B13 | 10 specific activity to metastin (1-54) |
| B14 | 1 specific activity to metastin (1-54) |
| B15 | 2 specific activity to metastin (1-54) |
| B16 | 1 specific activity to metastin (1-54) |
| B17 | 5 specific activity to metastin (1-54) |
| B18 | 1 specific activity to metastin (1-54) |
| B19 | 2 specific activity to metastin (1-54) |

Biological target: T1, human OT7T175 (metastin receptor)
Assay: cell-based or functional assay
Remark: another data set of the same source

| Binder | intracellular Ca ion level-increasing activity (FLIPR) |
| --- | --- |
| B20 | 30 specific activity to metastin (1-54) |
| B21 | 1 specific activity to metastin (1-54) |
| B22 | 1 specific activity to metastin (1-54) |
| B23 | 20 specific activity to metastin (1-54) |
| B24 | 10 specific activity to metastin (1-54) |
| B25 | 1 specific activity to metastin (1-54) |
| B26 | 1 specific activity to metastin (1-54) |
| B27 | 30 specific activity to metastin (1-54) |
| B28 | 1 specific activity to metastin (1-54) |
| B29 | 30 specific activity to metastin (1-54) |
| B30 | 5 specific activity to metastin (1-54) |

These binders were tested against T1, human OT7T175 (metastin receptor) (assay: FMAT competition with Cy-5-labeled metastin (40-54), hOT7T175-expressed CHO cells).

| Binder | IC50 [nM] |
| --- | --- |
| B1 | 27 |
| B2 | 49 |
| B3 | 37 |
| B4 | 250 |
| B5 | 700 |
| B6 | 56 |
| B7 | 40 |
| B22 | 7.7 |
| B23 | 23 |
| B8 | 390 |
| B9 | 44 |
| B10 | 100 |
| B24 | 100 |
| B25 | 0.83 |
| B11 | 36 |
| B26 | 880 |
| B12 | 130 |
| B13 | 250 |
| B14 | 47 |
| B15 | 190 |
| B27 | 190 |
| B16 | 23 |
| B17 | 33 |
| B18 | 820 |
| B19 | 140 |
